# B1: human-derived polypeptide of the present invention: novel human cytoplasmic phospholipase A2 polypeptide having the amino acid sequence shown in SEQ ID NO: 1, Flag-tagged, expressed in insect cells (protein, listed as Homo sapiens)
# chain: MLWALWPRWLADKMLPLLGAVLLQKREKRGPLWRHWRRETYPYYDLQVKVLRATNIRGTDLLSKADCYVQLWLPTASPSPAQTRIVANCSDPEWNETFHYQIHGAVKNVLELTLYDKDILGSDQLSLLLFDLRSLKCGQPHKHTFPLNHQDSQELQVEFVLEKSQVPASEVITNGVLVAHPCLRIQGTLRGDGTAPREEYGSGQLQLAVPGAYEKPQLLPLQPPTEPGLPPTFTFHVNPVLSSRLHVELMELLAAVQSGPSTELEAQTSKLGEGGILLSSLPLGQEEQCSVALGEGQEVALSMKVEMSSGDLDLRLGFDLSDGEQEFLDRRKQVVSKALQQVLGLSEALDSGQVPVVAVLGSGGGTRAMSSLYGSLAGLQELGLLDTVTYLSGVSGSTWCISTLYRDPAWSQVALQGPIERAQVHVCSSKMGALSTERLQYYTQELGVRERSGHSVSLIDLWGLLVEYLLYQEENPAKLSDQQEAVRQGQNPYPIYTSVNVRTNLSGEDFAEWCEFTPYEVGFPKYGAYVPTELFGSELFMGRLLQLQPEPRICYLQGMWGSAFATSLDEIFLKTAGSGLSFLEWYRGSVNITDDCQKPQLHNPSRLRTRLLTPQGPFSQAVLDIFTSRFTSAQSFNFTRGLCLHKDYVAGREFVAWKDTHPDAFPNQLTPMRDCLYLVDGGFAINSPFPLALLPQRAVDLILSFDYSLEAPFEVLKMTEKYCLDRGIPFPSIEVGPEDVEEARECYLFAKAEDPRSPIVLHFPLVNRTFRTHLAPGVERQTAEEKAFGDFVINRPDTPYGMMNFTYEPQDFYRLVALSRYNVLNNVETLKCALQLALDRHQARERAGA
# modifications: Flag tag
# Experiment: Measurement of PLA2 activity in the soluble fraction of insect cells (Sf9) expressing the human-derived polypeptide
# Type: biochemical
# Details: 4 mmol/l calcium chloride, 37° C., 2 hours, control: pVL1393 vector virus, FIG. 10
# Protocol: The supernatant containing the virus recovered in (2) above (2 ml) was added to 28 ml of 1.5×10^6/ml suspending Sf9 cells, and the cells were cultured at 27° C. for 4 days in the suspending state. The cells were recovered by centrifugation at 800 rpm for 5 minutes and washed with phosphate-buffered saline (PBS). The resulting cells were suspended in a buffer consisting of 25 mmol/l Tris-HCl (pH 7.5), 140 mmol/l sodium chloride, 5 mmol/l potassium chloride, 2 mmol/l EDTA and 1× complete, EDTA-free (Boehringer Mannheim) and disrupted on ice using a sonicator. The extract was centrifuged at 15,000 rpm for 15 minutes, and the supernatant was used for the measurement of PLA2 activity.
# One hundred μl of a reaction solution [100 mmol/l Tris-HCl (pH 7.5), 4 mmol/l calcium chloride, 1 mg/ml bovine serum albumin (substantially fatty acid-free, Sigma) and 8 μmol/l Triton X-100] containing 1-palmitoyl-2-[1-^14C]arachidonyl-phosphatidylcholine (48 mCi/mmol, Daiichi Kagaku Yakuhin) (2 μmol/l) and the supernatant obtained above was incubated at 37° C. for 2 hours, followed by the addition of Dole reagent (containing 2-propanol, heptane and sulfuric acid at a ratio of 78:20:2) to stop the reaction. To the reaction mixture were further added 0.3 ml of heptane and 0.2 ml of water, and mixing was effected by rotation. […] The amount of the polypeptide was determined using the Bio Rad Protein Assay method. […]
molecule,measurement,value
B1,PLA2 activity that hydrolyzes the ester bond at the sn-2-position in 1-palmitoyl-2-arachidonyl-phosphatidylcholine,has PLA2 activity
